# Measurements from patent US6677433B2 (The Regents of the University of California, priority 2001, dated 2004).
# T1: NADP-Malate Dehydrogenase (Zea mays, UniProt P15719)
# T1 construct: NADP-malate dehydrogenase (NADP-MDH) and fructose-1,6-bisphosphatase (FBPase) were purified from leaves of corn; from tissue; host or cells: corn leaves
# T1 sequence (P15719 whole entry, looked up): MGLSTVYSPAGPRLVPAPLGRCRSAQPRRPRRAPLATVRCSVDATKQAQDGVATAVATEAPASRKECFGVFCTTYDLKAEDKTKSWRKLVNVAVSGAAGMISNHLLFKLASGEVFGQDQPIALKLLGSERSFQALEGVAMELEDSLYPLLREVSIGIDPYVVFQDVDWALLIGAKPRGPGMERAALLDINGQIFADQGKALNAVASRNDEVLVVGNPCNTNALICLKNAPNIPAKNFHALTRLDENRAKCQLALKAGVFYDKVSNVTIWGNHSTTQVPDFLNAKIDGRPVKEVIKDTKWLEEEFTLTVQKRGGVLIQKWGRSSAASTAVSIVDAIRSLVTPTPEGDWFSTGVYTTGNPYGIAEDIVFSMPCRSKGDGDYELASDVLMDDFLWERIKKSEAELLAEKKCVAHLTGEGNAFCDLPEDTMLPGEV
# Biological target: T1, NADP-Malate Dehydrogenase
# Assay: Activation of chloroplast NADP-malate dehydrogenase by thioredoxin-reduced proteins
# Format: biochemical, corn
# Details: 20 μg protein; DTT→Thioredoxin→Indicated Protein→Target Enzyme
# Method: The NADP-MDH, FBPase, NTR and Thioredoxin h assay methods were according to Florencio, F. J. et al. (1988), Arch. Biochem. Biophys. 266:496-507 with slight modifications as indicated. For enzyme activation assays, the preincubation time was 20 min unless specified otherwise.
# The capability to replace a specific thioredoxin in the activation of chloroplast enzymes is one test for the ability of thiol groups of a given protein to undergo reversible redox change. […] A case in point is purothionin which, when reduced by thioredoxin h activates chloroplast FBPase (Wada, K. et al. (1981), FEBS Lett. 124:237-240, and Johnson, T. C. et al. (1987), Plant Physiol. 85:446-451). The FBPase, whose physiological activator is thioredoxin f, is unaffected by thioredoxin h. In this Example, the ability of cystine-rich proteins to activate FBPase as well as NADP-MDH was tested as set forth above. […]
# The Wada et al., 1981 protocol was used for assaying NADP-malate dehydrogenase and fructose 1,6 bisphosphatase in the presence of thioredoxin and 2S protein. […] The 2S protein was monitored during purification by mBBr/SDS-polyacrylamide gel electrophoresis following its reduction by dithiothreitol and E. coli thioredoxin (Crawford et al., 1989; Kobrehel et al., 1991).
molecule,measurement,value
"Soybean Kunitz: Kunitz soybean trypsin inhibitor (protein, UniProt P01070 25-205, looked up) Trypsin inhibitor A: DFVLDNEGNPLENGGTYYILSDITAFGGIRAAPTGNERCPLTVVQSRNELDKGIGTIISSPYRIRFIAEGHPLSLKFDSFAVIMLCVGIPTEWSVVEDLPEGPAVKIGENKDAMDGWFRLERVSDDEFNNYKLVFCPQQAEDDKCGDIGISIDHDDGTRRLVVSKNKPLVVQFQKLDKESL","ACTIVITY, NADP-MDH",2 nkat/mg
